# In patent US20170305994A1 (Novo Nordisk, published 2017):
# Where two headings read alike, the source gives them in different places.
# T1: human DR3 (full length, on cells) (human, UniProt Q93038 25-417)
# T1 construct: also called hDR3; Death Receptor 3
# T1 sequence: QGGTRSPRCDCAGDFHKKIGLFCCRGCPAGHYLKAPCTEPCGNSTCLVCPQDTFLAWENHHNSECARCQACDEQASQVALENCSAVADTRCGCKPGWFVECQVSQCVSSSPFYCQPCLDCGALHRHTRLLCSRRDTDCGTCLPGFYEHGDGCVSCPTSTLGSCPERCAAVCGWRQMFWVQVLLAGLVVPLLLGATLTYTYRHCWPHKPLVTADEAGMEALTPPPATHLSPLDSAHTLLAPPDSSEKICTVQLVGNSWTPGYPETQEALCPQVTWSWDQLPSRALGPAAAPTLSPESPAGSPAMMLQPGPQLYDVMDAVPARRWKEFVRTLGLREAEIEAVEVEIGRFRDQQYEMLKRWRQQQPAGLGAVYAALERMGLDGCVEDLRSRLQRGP
# T2: human DR3 with the death domain deleted (ΔM339-P417 of SEQ ID NO:1), expressed on CHOK1SV cells (human, UniProt Q93038 25-338)
# T2 construct: also called truncated DR3; hDR3 expressing CHO cells
# T2 sequence: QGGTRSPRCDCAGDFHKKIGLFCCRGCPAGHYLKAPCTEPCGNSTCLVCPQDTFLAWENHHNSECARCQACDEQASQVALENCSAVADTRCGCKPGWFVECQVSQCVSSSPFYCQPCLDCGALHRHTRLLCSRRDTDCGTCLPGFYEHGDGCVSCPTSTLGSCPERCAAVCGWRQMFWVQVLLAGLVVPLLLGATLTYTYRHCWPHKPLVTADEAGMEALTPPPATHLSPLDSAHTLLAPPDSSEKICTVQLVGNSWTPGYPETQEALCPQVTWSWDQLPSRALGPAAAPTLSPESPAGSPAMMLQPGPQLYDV
# B1: 0072 (murine mAb purified from hybridoma 27F44A2) (antibody, mouse IgG1, V domains shown)
# VH: EVKLVESGGGLVKPGGSLKLSCSASGFAFSNYDMSWVRQTPEKRLEWVAAFSSDGYTFYPDSLKGRFTISRDNARNTLYLQMSSLGSEDTALYCCARHADYANYPVMDYWGQGTSVTVSS
# VL: DIVLAQSPASLLVSLGQRATISCRASKSVSTSGYSYMHWYQQKPGQPPKLLIYLASNLESGVPARFSGSGSGTDFTLNIHPVEEEDAATYYCQHSRELPLTFGAGTMLELKR
# notes: murine IgG1, kappa; also called 0084
# B2: 0152 (chimeric Fab of 50F191, human IgG4 constant domain, hinge Cys->Ser) (Fab, V domains shown)
# VH: EVQLVESGGGLVEPGGSLKLSCAASGFTFSTYAMSWVRQSPEKRLEWVAEISSGDSYTYYPDIVTGRFTISRDDAKNTLFLEMSSLRSEDTAIYYCVRDQDYRYDGYYAMDHWGQGTSVTVSS
# VL: DIVLTQSPASLAVSLGQRATISCRASESVEHYGTSLMQWYQQKPGQPPKLLIYAASNVESGVPARFSGRGSGPDFSLNIHPVEEDDIAMYFCQQSRRIPWTFGGGTKLEIKR
# notes: IgG4-Ser, chimeric
# B3: 0070 (murine mAb purified from hybridoma 27F16A1) (antibody, V domains shown)
# VH: EVQLVESGGDFVKPGGSLKLSCAASGFTFNNYGMSWVRQTPDKRLEWVAAISSGVTYTYYPDTVKGRFTISRDNAKNTLYLHMSSLKSEDTAMYYCGRHDDYGNHFDYWGQGTTLTVSS
# VL: DIVMTQSPSSLAMSLGQRVTMNCKSSQSLLNSHNQKNYLAWYQQKPGQSPKLLVYFASSRESGVPDRFIGSGSGTDFTLTISSVQAEDLADYFCQQHYSTPFTFGSGTKLEIKR
# notes: murine IgG1, kappa; also called 0083
# B4: 0163 (chimeric Fab of 45F187, human IgG4 constant domain, hinge Cys->Ser) (Fab, V domains shown)
# VH: EVQLVESGGGLVQPGGSLRLSCATSGFTFTNYYMAWVRKPPGKTLEWLGFMRNIVNGYTTDYSGSVEGRFTISRDNSQSILYLQMNALRPEDSATYYCARDIGYRYDGGGYGLDYWGQGTSVTVSS
# VL: DIQMTQSPASLSASVGETVTLTCRASGNIHNYLTWYQQKQGKSPQLLVYNVKTLADGVSSRFSGSGSGTQFSLKINSLQPEDFGSYYCQHFWTTPYTFGGGTKLEIRR
# notes: IgG4-Ser, chimeric; also called 0150
# How the values were obtained:
# [1] = biological target: T1, human DR3 (full length, on cells); test: flow cytometry on CD3/CD28-stimulated human CD4+ T cells
# Description: Human CD4-positive T cells were purified from Buffy coats using CD4 Rosettesep (Stem cell technologies) and Histopaque (Sigma). T cells were stimulated with CD3/CD28 Dynabeads (Invitrogen) at a 1:1 ratio for 4 days in T75 flask at 2 mio CD4 T cells/ml in RPMI supplemented with 10% fcs. Beads were removed using a magnet, and cells were washed twice before titrating in antibodies on 500.000 cells/staining. Binding saturation was measured after incubation with goat-anti-mouse phycoerythrin (Jackson ImmunoResearch) and cells were subsequently analysed by flow cytometry on a BD LSRII. All antibodies reached saturation at 3 μg/ml.
# [2] = biological target: T1, human DR3 (full length, on cells); test: cell-based or functional assay
# [3] = biological target: T1, human DR3 (full length, on cells); test: flow cytometry on IL-12/IL-18/TL1A activated CD4+ T cells, 1 µg/ml
# Description: (§1) Buffy Coats were obtained from normal healthy volunteers from Copenhagen University Hospital. CD4+ T cells were isolated through magnetic bead separation. Cells were activated with 2 ng/ml IL-12, 50 ng/ml IL-18 and 100 ng/ml TL1A (Flag-HIS-TEV-TL1A-produced at Novo Nordisk A/S) and cultured for 5 days. On day 5 cells were stained with 10, 5, 1, 0.5, 0.1 or 0.0001 μg/ml of the anti-DR3 mAb clones 0072, 0073, or 0077, or with Fab fragment clones 0087, 0088 and 0091. A secondary PE conjugated goat-anti-mouse (H+L) was used for detection.
# The greater observed MFI values of IgG treated compared with Fab treated cells was expected since the secondary (detecting) antibody (anti-IgG heavy and light chain) bound to both Fab and Fc parts of the full-length IgG antibody clones, but only to Fab parts of Fab clones (Table 9).
# [4] = biological target: T1, human DR3 (full length, on cells); test: as above; remark: listed apart in the source
# Description: as §1
# as §1, with “Material and Methods: Buffy” for “Buffy”, “Copenhagen” for “Copenhagen University”, “0088 or” for “0088 and”, “detection. Samples were in duplicate. Staining intensity was evaluated by FACS.” for “detection.”
# [5] = biological target: T1, human DR3 (full length, on cells); test: cell-based or functional assay; remark: listed apart in the source
# [6] = biological target: T3, DR3 (CRD1)-Fc (human); test: SPR, Biacore T100, DR3-Fc fusion immobilised
# T3 construct: Amino acids 25-71 of DR3 fused to the Fc domain of human IgG4; purified to exclude oligomers (mainly dimeric)
# Description: (§2) The extracellular moiety of DR3 is located at the aminoterminal portion of DR3 and is comprised of four TNF receptor cysteine-rich domains. Several fusion proteins were expressed and purified which contained parts of the extracellular domain of DR3 of increasing length fused to the Fc domain of a human IgG4. The DR3 proteins used for SPR analysis had been purified to exclude oligomerized material. These proteins were immobilized to a CM5 sensor chip using amine coupling chemistry. Binding of anti-DR3 antibodies termed 0070, 0072, 0073 and 0076, to the different DR3-Fc fusion proteins was tested by means of plasmon surface binding measurements on a Biacore T100 instrument (GE Healthcare). All of these antibodies inhibit binding of TL1A to DR3 in a FACS assay. These 4 antibodies bound to recombinant DR3 (CRD1)-Fc protein that contained only the aminoterminal CRD (SEQ ID NO:2) comprised of amino acids 25-71 of DR3.
# [7] = biological target: T3, DR3 (CRD1)-Fc; test: SPR
# Description: as §2
# The same analysis was also performed for some of the Fab fragments.
# [8] = biological target: T2, human DR3 with the death domain deleted …; test: flow cytometry competition: Fab vs TL1A on hDR3-expressing CHO cells
# [9] = biological target: T1, human DR3 (full length, on cells); test: cell-based or functional assay; remark: listed apart in the source
# [10] = biological target: T1, human DR3 (full length, on cells); test: cell-based or functional assay; remark: listed apart in the source
# [11] = biological target: T4, DR3 (ECD)-Fc (human); test: HX-MS with hDR3 ECD-Fc
# T4 construct: ECD of DR3, a linker with a TEV cleavage site and the Fc part of human IgG4; dimeric fraction used; also called DR3-Fc; hDR3-Fc
# Description: The Leap robot was equipped with two temperature controlled stacks maintained at 20° C. for buffer storage and HX reactions and maintained at 2° C. for storage of protein and quench solution, respectively. The Waters HDX system furthermore contained a temperature controlled chamber holding the pre- and analytical columns, and the LC tubing and switching valves at 1° C. A separately temperature controlled chamber holds the pepsin column at 25° C. […] The resulting peptides were trapped and desalted on a VanGuard pre-column BEH C18 1.7 μm (2.1×5 mm (Waters Inc.)). Subsequently, the valves were switched to place the pre-column inline with the analytical column, UPLC-BEH C18 1.7 μm (1×100 mm (Waters Inc.)), and the peptides separated using a 9 min gradient of 10-40% B delivered at 200 μl/min from the nanoAQUITY UPLC system (Waters Inc.). The mobile phases consisted of A: 0.1% formic acid and B: 0.1% formic acid in CH₃CN. The ESI MS data, and the separate elevated energy (MS^E) experiments were acquired in positive ion mode using a Synapt G2 mass spectrometer (Waters Inc.).
# All HX reactions were carried out at 20° C. and contained […] hDR3 in the absence or presence of […] Fab thus giving a 5 fold molar excess of Fab. […]
binder,measurement,setting,value
B1,Median Fluorescent Intensity,[1],2650
same,Staining index (MFI Ab/MFI Isotype),[1],11.9
same,saturation concentration,[1],3 µg/mL
same,"fold response, DR3 reporter, 40 ng/ml TL1A + 0.000256 microg/ml",[2],33.8 fold
same,"fold response, DR3 reporter, 40 ng/ml TL1A + 0.00128 microg/ml",[2],37.2 fold
same,"fold response, DR3 reporter, 40 ng/ml TL1A + 0.0064 microg/ml",[2],40.3 fold
same,"fold response, DR3 reporter, 40 ng/ml TL1A + 0.032 microg/ml",[2],41 fold
same,"fold response, DR3 reporter, 40 ng/ml TL1A + 0.08 microg/ml",[2],38.4 fold
same,"fold response, DR3 reporter, 40 ng/ml TL1A + 4 microg/ml",[2],34 fold
same,"fold response, DR3 reporter, 40 ng/ml TL1A + 20 microg/ml",[2],27.8 fold
same,"fold response, DR3 reporter, 40 ng/ml TL1A + 100 microg/ml",[2],18.4 fold
same,"fold response, DR3 reporter, no TL1A, 0.000256 microg/ml",[2],1.1 fold
same,"fold response, DR3 reporter, no TL1A, 0.00128 microg/ml",[2],2.2 fold
same,"fold response, DR3 reporter, no TL1A, 0.0064 microg/ml",[2],9.3 fold
same,"fold response, DR3 reporter, no TL1A, 0.032 microg/ml",[2],18.6 fold
same,"fold response, DR3 reporter, no TL1A, 0.08 microg/ml",[2],25.1 fold
same,"fold response, DR3 reporter, no TL1A, 4 microg/ml",[2],21.1 fold
same,"fold response, DR3 reporter, no TL1A, 20 microg/ml",[2],16.3 fold
same,"fold response, DR3 reporter, no TL1A, 100 microg/ml",[2],9.2 fold
same,MFI,[3],1300 MFI
same,MFI,[4],1300 MFI
same,"fold response, DR3 reporter, 40 ng/ml TL1A + 0.1 microg/ml",[5],29.6 fold
same,"fold response, DR3 reporter, 40 ng/ml TL1A + 1 microg/ml",[5],24.8 fold
same,"fold response, DR3 reporter, 40 ng/ml TL1A + 10 microg/ml",[5],23.3 fold
same,"fold response, DR3 reporter, 40 ng/ml TL1A + 100 microg/ml",[5],13.6 fold
same,"fold response, DR3 reporter, no TL1A, 0.1 microg/ml",[5],20.6 fold
same,"fold response, DR3 reporter, no TL1A, 1 microg/ml",[5],19.8 fold
same,"fold response, DR3 reporter, no TL1A, 10 microg/ml",[5],17.3 fold
same,"fold response, DR3 reporter, no TL1A, 100 microg/ml",[5],8.5 fold
same,binding result,[6],binds
B2,binding result,[7],binds
same,IC50,[8],0.512 nM
same,max percentage inhibition,[8],53%
same,"IC50, TNFalpha inhibition, TL1A-activated CD4+ T cells, donor 1",[9],0.183 nM
same,"IC50, TNFalpha inhibition, average (n 1)",[9],0.183 nM
same,"max % inhibition of TNFalpha, donor 1",[9],73.5%
same,"IC50 at 40 ng/ml TL1A, I5 reporter cells",[10],2.1 nM
B3,Median Fluorescent Intensity,[1],2330
same,Staining index (MFI Ab/MFI Isotype),[1],10.5
same,saturation concentration,[1],3 µg/mL
same,binding result,[6],binds
B4,binding result,[11],binds
